According to patent US9462805B2, “Herbicide-resistant proteins, encoding genes, and uses thereof” (Beijing Dabeinong Technology Group Co., Ltd., priority 2012, dated 2016):
Residue numbers refer to the chain shown, from its start.

B1: 24DT02-t: truncated 24DT02 (SEQ ID NO: 4), amino acids from 1 to 295 of 24DT02 amino acid sequence (protein)
chain: MERHAMSNGKQIVRIEPLPGKTFGAVVTGVRLSELDEDTFSLLYREWLQYALLIFPAQYLTDSQQRDAASKFGCLVEGLEAVEISNLLPTGEVRAAPDDDMMKIIRGNMQWHQDNTYMPLQAKGALFSAKRVPSSGGETGFADMRAAWDALDTETQDRLANLSAYHSLAQSQKNLGEDVKSSDSEYIGYGLDVSTVPRRSLLKIHPETDRKTLAVGRHAFGVTGMAEQESTQFVSDLIDFAVADESRTYHHIWSEGDAILWDNRCLMHRACPWNFSQPRVMLHSRIAGDPSTEAA
modifications: 24DT02 truncated nucleotide sequence
B2: 24DT02: herbicide-resistant protein of 298 amino acids, SEQ ID NO: 2, encoded by nucleotide sequence SEQ ID NO: 1 (protein)
chain: MERHAMSNGKQIVRIEPLPGKTFGAVVTGVRLSELDEDTFSLLYREWLQYALLIFPAQYLTDSQQRDAASKFGCLVEGLEAVEISNLLPTGEVRAAPDDDMMKIIRGNMQWHQDNTYMPLQAKGALFSAKRVPSSGGETGFADMRAAWDALDTETQDRLANLSAYHSLAQSQKNLGEDVKSSDSEYIGYGLDVSTVPRRSLLKIHPETDRKTLAVGRHAFGVTGMAEQESTQFVSDLIDFAVADESRTYHHIWSEGDAILWDNRCLMHRACPWNFSQPRVMLHSRIAGDPSTEAALNS
modifications: 24DT02 amino acid sequence
B3: 24DT02-i: substituted 24DT02 (SEQ ID NO: 3), in which the Met267 was substituted with Leu (protein)
chain: B2 chain with M267L
modifications: 24DT02 substituted nucleotide sequence
B4: 24DT02-a: added 24DT02 (SEQ ID NO: 5), Ala, Leu and Val added after the 298th amino acid (protein)
chain: MERHAMSNGKQIVRIEPLPGKTFGAVVTGVRLSELDEDTFSLLYREWLQYALLIFPAQYLTDSQQRDAASKFGCLVEGLEAVEISNLLPTGEVRAAPDDDMMKIIRGNMQWHQDNTYMPLQAKGALFSAKRVPSSGGETGFADMRAAWDALDTETQDRLANLSAYHSLAQSQKNLGEDVKSSDSEYIGYGLDVSTVPRRSLLKIHPETDRKTLAVGRHAFGVTGMAEQESTQFVSDLIDFAVADESRTYHHIWSEGDAILWDNRCLMHRACPWNFSQPRVMLHSRIAGDPSTEAALNSALV
modifications: 24DT02 added nucleotide sequence

What was measured:
[1] = test system: Arabidopsis; assay: Effective dose distinguishing sensitive from resistant Arabidopsis; type: in vivo
[2] = test system: corn plants transfected with 24DT02 nucleotide sequence; assay: Herbicide-resistance effect test of transgenic corn plants (24DT02; strains S1-S3); type: in vivo, maize; settings: for resistance levels against 2,4-D dimethyl ammonium salt and agroxone, compared among the sequences: corn plants transformed with the respective sequence
Protocol: Herbicide resistance effects tests to 2,4-D dimethyl ammonium salt and agroxone of maize plants containing 24DT02 nucleotide sequence, 24DT02 substituted nucleotide sequence, 24DT02 truncated nucleotide sequence, 24DT02 added nucleotide sequence, control nucleotide sequence respectively and wild type maize plants (stages V3-V4) were performed respectively.
Maize plants containing 24DT02 nucleotide sequence, 24DT02 substituted nucleotide sequence, 24DT02 truncated nucleotide sequence, 24DT02 added nucleotide sequence, control nucleotide sequence respectively and wild type maize plants were taken and spayed with 2,4-D dimethyl ammonium salt (8960 g ae/ha, 16-folds concentration in field), agroxone (8960 g ae/ha, 16-folds concentration in field) and blank solvent (water) respectively. Prop root development was counted 21 days after spaying. Three strains (S1, S2, and S3) of corn plants transfected with 24DT02 nucleotide sequence, two strains (S4 and S5) of corn plants transfected with 24DT02 substituted nucleotide sequence, two strains (S6 and S7) of corn plants transfected with 24DT02 truncated nucleotide sequence, two strains (S8 and S9) of corn plants transfected with 24DT02 added nucleotide sequence, two strains (S10 and S11) of corn plants transfected with control nucleotide sequence and 1 strain of wild type (CK) corn were selected and 10-15 plants from each stain were tested.

[3] = test system: Arabidopsis T1 plants transformed with 24DT02 nucleotide sequence; assay: Herbicide resistance effect test of transgenic Arabidopsis T1 plants (24DT02); type: in vivo, Arabidopsis thaliana; settings: for resistance levels to 2,4-D dimethyl ammonium salt and agroxone, compared among the sequences: Arabidopsis T1 plants transformed with the respective sequence
Protocol: On 7 days after planting (DAP) and 11 DAP respectively, the T1 plants (cotyledon stage and 2-4 leaves stage, respectively) were sprayed with 0.2% of Liberty herbicide solution (200 g ai/L glufosinate-ammonium) using DeVilbiss compressed air nozzle at a spraying volume of 10 ml/disc (703 L/ha) so as to provide effective amount of glufosinate-ammonium (280 g ai/ha) for each application. The survival plants (actively growing plants) were verified 4 to 7 days after the last spraying and transferred into the square pot (7 cm×7 cm) made from vermiculite and horses dung (3-5 plants per pot). The transplanted plants were covered with moisturizing mask for 3-4 days and placed in culture room at 22° C. or directly into the greenhouse as described above. Then the mask was removed and the plants were planted in greenhouse (22±5° C., 50±30% RH, 14 hours of lighting: 10 hours of darkness, minimum […] natural light+complement light) at least one day before testing the ability of 24DT02 to provide the resistance to phenoxy auxin herbicide.
24DT02 gene was used to transform Arabidopsis for the first time. At first, T1 transformants were selected from the background of un-transformed seeds, using glufosinate-ammonium selection scheme. About 40000 T1 seeds were screened among which 195 strains of T1 generation positive transformants (PAT gene) were identified, i.e. the transformation efficiency was about 0.5%. Herbicide resistance effect tests to 2,4-D dimethyl ammonium salt and agroxone of Arabidopsis T1 plants transformed with 24DT02 nucleotide sequence, substituted 24DT02 nucleotide sequence, truncated 24DT02 nucleotide sequence, added 24DT02 nucleotide sequence, control nucleotide sequence respectively and wild-type Arabidopsis plants were performed after 18 days of planting.
Arabidopsis T1 plants transformed with 24DT02 nucleotide sequence, substituted 24DT02 nucleotide sequence, truncated 24DT02 nucleotide sequence, added 24DT02 nucleotide sequence and control nucleotide sequence respectively and wild-type Arabidopsis plants were sprayed with 2,4-D dimethyl ammonium salt (560 g ae/ha, 1-fold concentration in field), agroxone (560 g ae/ha, 1-fold concentration in field) and blank solvent (water). Resistance conditions of the plants were counted 7 days and 14 days after spraying. Plants with growth conditions consistent with blank solvent (water) 7 days after spaying were classified as highly resistant plants; Plants with curly rosette leaves 7 days after spaying were classified as moderately resistant plants; Plants incapable of bolting 14 days after spaying were classified as low-resistant plants and the dead plants 14 days after spaying were classified as non-resistant plants. Because each Arabidopsis T1 plant was an independent transformation event, significant differences of individual T1 responses were expected under a given dose.

Row | Molecule | effective dose to distinguish the sensitive plants from plants with average resistance [1] [g ae/ha] | resistance levels against 2,4-D dimethyl ammonium salt and agroxone, compared among the sequences [2] | resistance levels to 2,4-D dimethyl ammonium salt and agroxone, compared among the sequences [3] | herbicide resistance conferred to plants ([2]; transgenic maize plants, 2,4-D dimethyl ammonium salt and agroxone 8960 g ae/ha, Table 2) | herbicide resistance conferred to plants ([3]; Arabidopsis T1 plants, 2,4-D dimethyl ammonium salt and agroxone 560 g ae/ha, Table 1 and FIG. 4)
1 | O=C(O)COc1ccc(Cl)cc1Cl [2,4-D, 2,4-dichlorophenoxyacetic acid] | 50 |  |  |  | 
2 | B1 |  | didn't show significant differences | didn't show significant differences |  | 
3 | B2 |  | didn't show significant differences | didn't show significant differences | conferred high resistance against herbicides to the transgenic maize plants | conferred herbicide resistance to individual Arabidopsis plants
4 | B3 |  | didn't show significant differences | didn't show significant differences |  | 
5 | B4 |  | didn't show significant differences | didn't show significant differences |  | 
